In the supplement of paper PMC7125110:
± gives the standard error. This sample holds only a part of the variants without activity.

B1: glmS ribozyme (parent)
chain: AUAAAAGCGCCAGAACUACAGAAAUGUAGUUGACGAGGAGGAGGUUUAUCGAAUUUUCGGCGGAUGCCUCCAAA

Variants of: B1
Assay: self-cleavage kobs at 2500 uM GlcN6P; higher = faster cleavage; RNA array
Conditions: with glucosamine-6-phosphate
Method in brief: (§1)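 In situ transcription by E. coli RNA polymerase produced barcoded ribozyme variants on sequenced MiSeq chips, and a hybridised Cy3 probe tracked them at 37 °C. Glucosamine-6-phosphate was flowed in at 40 μM to 10 mM in HEPES/KCl/Mg(OAc)2 buffer. kcat and KM were taken from weighted Michaelis–Menten fits of kobs values from exponential decay fits.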

First: A14G A33G A36U A42U U46A
Second: A14C U30G A42G A53C
The “self-cleavage kobs at 2500 uM GlcN6P” value of the first is lower: < 1e-05 s⁻¹ for the first, 7.92e-05 ± 2.7e-05 s⁻¹ for the second.

A15C A42G U56A G60U and A15U A33C A39G C71G cannot be ordered by “self-cleavage kobs at 2500 uM GlcN6P” value: < 1e-05 s⁻¹ for the first, < 1e-05 s⁻¹ for the second.

G13U G38U C68U and A15G U49G C50A G60C cannot be ordered by “self-cleavage kobs at 2500 uM GlcN6P” value: < 1e-05 s⁻¹ for the first, < 1e-05 s⁻¹ for the second.

First: A15U G43U A53U C68U
Second: A15G G29U U47G U54A
The “self-cleavage kobs at 2500 uM GlcN6P” value of the first is 3-fold lower: 8.35e-05 ± 3.5e-05 s⁻¹ for the first, 0.000248 ± 6.2e-05 s⁻¹ for the second.

Going from A15C G35U C70G to A15C A42G C67U, the “self-cleavage kobs at 2500 uM GlcN6P” value rises from < 1e-05 s⁻¹ to 0.000389 ± 9.9e-05 s⁻¹.

Compared with A15C A39U C50G A53G, A14C U54G C58G C68U is higher in “self-cleavage kobs at 2500 uM GlcN6P” value: < 1e-05 s⁻¹ for the first, 4.09e-05 ± 1.3e-05 s⁻¹ for the second.

A15U G44A G51A A53U and G13U A48G U57G cannot be ordered by “self-cleavage kobs at 2500 uM GlcN6P” value: < 1e-05 s⁻¹ for the first, < 1e-05 s⁻¹ for the second.

First: A15C A64G C68A
Second: C16A A39G U69G
The “self-cleavage kobs at 2500 uM GlcN6P” value of the first is lower: < 1e-05 s⁻¹ for the first, 0.000118 ± 3.8e-05 s⁻¹ for the second.

First: G13U G43U C61G
Second: A14U G41U U54A
The “self-cleavage kobs at 2500 uM GlcN6P” value of the first is lower: < 1e-05 s⁻¹ for the first, 0.000104 ± 3.2e-05 s⁻¹ for the second.

First: A14U A15G G32U U57G U69A
Second: A15C G66U U69C
The “self-cleavage kobs at 2500 uM GlcN6P” value of the first is 6.3-fold higher: 0.000285 ± 0.00012 s⁻¹ for the first, 4.52e-05 ± 1.5e-05 s⁻¹ for the second.

C16A A39C A42U G51C C61G and A15G G44U C50U A64U cannot be ordered by “self-cleavage kobs at 2500 uM GlcN6P” value: < 1e-05 s⁻¹ for the first, < 1e-05 s⁻¹ for the second.

G13C G43C U57G and A14U G32U G44C G62U C71A cannot be ordered by “self-cleavage kobs at 2500 uM GlcN6P” value: < 1e-05 s⁻¹ for the first, < 1e-05 s⁻¹ for the second.

First: A14U A33G G40U U56A
Second: A15U C16U U49A C70G
The “self-cleavage kobs at 2500 uM GlcN6P” value of the first is lower: < 1e-05 s⁻¹ for the first, 4.48e-05 ± 1.7e-05 s⁻¹ for the second.

Compared with G13U G35A U57A U65G, A15G G44U U54C is higher in “self-cleavage kobs at 2500 uM GlcN6P” value: < 1e-05 s⁻¹ for the first, 0.00016 ± 3.1e-05 s⁻¹ for the second.

A14G G41A G62U and A14C C34G G62U cannot be ordered by “self-cleavage kobs at 2500 uM GlcN6P” value: < 1e-05 s⁻¹ for the first, < 1e-05 s⁻¹ for the second.

A14C A33G C34G G37C G60C and G13C G40A G60U cannot be ordered by “self-cleavage kobs at 2500 uM GlcN6P” value: < 1e-05 s⁻¹ for the first, < 1e-05 s⁻¹ for the second.

Going from A14U G29U C67G to A15C A64C C68U, the “self-cleavage kobs at 2500 uM GlcN6P” value falls from 6.46e-05 ± 2.8e-05 s⁻¹ to < 1e-05 s⁻¹.

G13U A36G G60A C61U and A15C A33C C61U G66A cannot be ordered by “self-cleavage kobs at 2500 uM GlcN6P” value: < 1e-05 s⁻¹ for the first, < 1e-05 s⁻¹ for the second.

A15U G51U U65A and A15U G32U A36G A64G C68U cannot be ordered by “self-cleavage kobs at 2500 uM GlcN6P” value: < 1e-05 s⁻¹ for the first, < 1e-05 s⁻¹ for the second.

A14U U45G U47A U54C G62U and A14C C16A G63A cannot be ordered by “self-cleavage kobs at 2500 uM GlcN6P” value: < 1e-05 s⁻¹ for the first, < 1e-05 s⁻¹ for the second.

Compared with A14U G51C A64G, A15C G32A U69A is higher in “self-cleavage kobs at 2500 uM GlcN6P” value: < 1e-05 s⁻¹ for the first, 0.000103 ± 3.2e-05 s⁻¹ for the second.

First: A15C C34G U57A
Second: G13U A15U C71U
The “self-cleavage kobs at 2500 uM GlcN6P” value of the first is lower: < 1e-05 s⁻¹ for the first, 5.99e-05 ± 2.5e-05 s⁻¹ for the second.

Compared with A15G U45C U65G, A14U U45G A53C U65C is lower in “self-cleavage kobs at 2500 uM GlcN6P” value: 0.000117 ± 3.1e-05 s⁻¹ for the first, < 1e-05 s⁻¹ for the second.

Compared with A14C G40U A53G, C16A A33U A52U is lower in “self-cleavage kobs at 2500 uM GlcN6P” value: 0.000325 ± 5.5e-05 s⁻¹ for the first, < 1e-05 s⁻¹ for the second.

A15U C50U U54C G59C and G13C U31G A36G U46A C70G cannot be ordered by “self-cleavage kobs at 2500 uM GlcN6P” value: < 1e-05 s⁻¹ for the first, < 1e-05 s⁻¹ for the second.

A14G G60U G66A and G13C G32U G38U U47G A48U cannot be ordered by “self-cleavage kobs at 2500 uM GlcN6P” value: < 1e-05 s⁻¹ for the first, < 1e-05 s⁻¹ for the second.

A15C G66U C67G and A14C U30G A52G are the same in “self-cleavage kobs at 2500 uM GlcN6P” value: 4.27e-05 ± 1.7e-05 s⁻¹ for the first, 4.27e-05 ± 2.1e-05 s⁻¹ for the second.

First: A14G U56G C71U
Second: A14U G35C U65G G66U U69G
The “self-cleavage kobs at 2500 uM GlcN6P” value of the first is higher: 0.0458 ± 0.019 s⁻¹ for the first, < 1e-05 s⁻¹ for the second.

Compared with A15G G38U A52U, A14G U55G G66U is higher in “self-cleavage kobs at 2500 uM GlcN6P” value: < 1e-05 s⁻¹ for the first, 0.00182 ± 0.00038 s⁻¹ for the second.

First: A14U G32C A52U
Second: A15G G29U A39G C67U
The “self-cleavage kobs at 2500 uM GlcN6P” value of the first is lower: < 1e-05 s⁻¹ for the first, 0.000169 ± 5.3e-05 s⁻¹ for the second.

Compared with G13C U31A A53G, A15G G44U A64U U65G is lower in “self-cleavage kobs at 2500 uM GlcN6P” value: 0.000107 ± 3.6e-05 s⁻¹ for the first, < 1e-05 s⁻¹ for the second.

Going from A15C A23C to A14C U31G A39G G66U, the “self-cleavage kobs at 2500 uM GlcN6P” value falls from 0.00398 ± 0.0014 s⁻¹ to 0.00126 ± 0.00036 s⁻¹ (3.2-fold).

First: G13U U31C G44U A64U
Second: G13C G41A U45A C70U
The “self-cleavage kobs at 2500 uM GlcN6P” value of the first is lower: < 1e-05 s⁻¹ for the first, 8.8e-05 ± 2e-05 s⁻¹ for the second.

Compared with A14G A42G G44A U55G, A14G A36U A39C is lower in “self-cleavage kobs at 2500 uM GlcN6P” value: 0.000136 ± 4.1e-05 s⁻¹ for the first, < 1e-05 s⁻¹ for the second.

Compared with A15G U56G C58U, A14U A33G A52G C68U C70G C71A is 7.6-fold higher in “self-cleavage kobs at 2500 uM GlcN6P” value: 3.75e-05 ± 1.4e-05 s⁻¹ for the first, 0.000285 ± 9.7e-05 s⁻¹ for the second.

Going from A14U U30C G62C U69G to A14G A39U C71G, the “self-cleavage kobs at 2500 uM GlcN6P” value rises from < 1e-05 s⁻¹ to 0.00129 ± 0.00041 s⁻¹.

A14G G35U C67U and A15U A48G G51U cannot be ordered by “self-cleavage kobs at 2500 uM GlcN6P” value: < 1e-05 s⁻¹ for the first, < 1e-05 s⁻¹ for the second.

A15C A36C G59A U65A and A15U G29C C50U cannot be ordered by “self-cleavage kobs at 2500 uM GlcN6P” value: < 1e-05 s⁻¹ for the first, < 1e-05 s⁻¹ for the second.

A14U U45G G60U and G13U A33G U45C G63A cannot be ordered by “self-cleavage kobs at 2500 uM GlcN6P” value: < 1e-05 s⁻¹ for the first, < 1e-05 s⁻¹ for the second.

Going from A14C C16U G43C to G13U U47A C71G, the “self-cleavage kobs at 2500 uM GlcN6P” value rises from < 1e-05 s⁻¹ to 5.89e-05 ± 1.7e-05 s⁻¹.

In the case of A14U U47C C61G, the “self-cleavage kobs at 2500 uM GlcN6P” value is reported as < 1e-05 s⁻¹.

Variants of: B1
Assay: self-cleavage kobs at 10000 uM GlcN6P; higher = faster cleavage; RNA array
Conditions: with glucosamine-6-phosphate
Method in brief: as §1

First: A14C U54G C58G C68U
Second: G13U G35A U57A U65G
The “self-cleavage kobs at 10000 uM GlcN6P” value of the first is higher: 4.43e-05 ± 2e-05 s⁻¹ for the first, < 1e-05 s⁻¹ for the second.

Compared with A14C G40U A53G, A15C G66U C67G is 3.6-fold lower in “self-cleavage kobs at 10000 uM GlcN6P” value: 0.000591 ± 0.0001 s⁻¹ for the first, 0.000165 ± 4.9e-05 s⁻¹ for the second.

First: A14G U55G G66U
Second: G13C U31A A53G
The “self-cleavage kobs at 10000 uM GlcN6P” value of the first is 8.6-fold higher: 0.00253 ± 0.00062 s⁻¹ for the first, 0.000294 ± 5.7e-05 s⁻¹ for the second.

First: A15C A23C
Second: A15C A36C G59A U65A
The “self-cleavage kobs at 10000 uM GlcN6P” value of the first is higher: 0.00556 ± 0.0014 s⁻¹ for the first, < 1e-05 s⁻¹ for the second.
